Numbering of substitutions follows the chain as printed. Several values for one entry are separate records, joined by “and”; a condition that tells them apart may be missing. Identical values can stand only once.

Assay [1] deals with TIM3-hFc (human TIM-3 Fc fusion, 货号 TM3-H5258, 北京百普赛斯生物科技有限公司) (human) (UniProt Q8TDQ0). The assay is described as follows: ELISA, hybridoma supernatant on TIM3-hFc captured by anti-hFc.
For assay [2], the target named is human TIM-3 on human blood cells (PBMC / NK cells / activated T cells) (human, UniProt Q8TDQ0 22-301). Kind of assay: cell-based or functional assay.
Assay [3] concerns the target T1, 人Tim-3 (antigen used as analyte in Biacore) (human, UniProt Q8TDQ0 22-200).
T1 construct: Soluble antigen flowed at 0-30 nM over antibody captured by Protein A; also called 抗原TIM-3
The assay is described as follows: SPR, Biacore T200, antibody captured by Protein A on CM5, TIM-3 as analyte, 1:1 Langmuir.

Assay [4] deals with T2, TIM3-hFc (human TIM-3 Fc fusion, 货号 TM3-H5258, 北京百普赛斯生物科技有限公司) (human, UniProt Q8TDQ0 22-200).
T2 construct: also called 人TIM-3; 人TIM-3抗原; not shown: human Fc (hFc) of the bought fusion
The assay is described as follows: ELISA on TIM3-hFc captured by anti-hFc.

B1: mab5 (mouse hybridoma clone 6F3, murine anti-human TIM-3 monoclonal antibody) (antibody, V domains shown)
VH: EVKLVESEGGLVQPGGSMKLSCTASGFTFSDYYMAWVRQVPEKGLEWVANINYDGSNTYYLDSLKSRFIISRDNVKNILYLQMSSLKSEDTATYYCARGLYYYGGNYFAYWGQGTLVTVSA
VL: DILMTQSPSSMSVSLGDTVTITCHASQGISSNIGWLQQKPGKSFKGLIYQGSNLEDGVPSRFSGSGSGADYSLTISSLEYEDFADYYCVQFAQFPPTFGAGTKLELK
In the case of B1, the ELISA 数值(OD450) in assay [1] amounted to 1.73 OD450.

B2: mab5-c (chimeric anti-human TIM-3 antibody, human IgG4-κ) (antibody, V domains shown)
VH: B1 VH
VL: DILMTQSPSSMSVSLGDTVTITCHASQGISSNIGWLQQKPGKSFKGLIYQGSNLEDGVPSRFSGSGSGADYSLTISSLEYEDFADYYCVQFAQFPPTFGAGTKLELKR
notes: Mouse mab5 variable regions on human IgG4 / kappa constant regions; expressed in HEK293E; also called 嵌合抗体mab5-c
For the molecule B2, the “killing activity relative to the reference antibody ABTIM3 (fold)” value in assay [2] is 2.8 倍 (fold). In assay [3], this molecule had an equilibrium dissociation constant (Kd) of 1.76 nM, a koff of 0.00244 s⁻¹ and a kon of 1.39e+06 M⁻¹ s⁻¹. Further, the EC50 in assay [4] was 0.107 nM and 0.06 nM.

B3: 人源化ab8抗体 (humanized anti-TIM-3 antibody ab8) (antibody, IgG4, V domains shown)
VH: EVQLVESGGGLVKPGGSLRLSCAASGFTFSDYYMAWVRQAPGKGLEWVANINYDGSNTYYLDSLKSRFTISRDNAKNSLYLQMNSLRAEDTAVYYCARGLYYYGGNYFAYWGQGTLVTVSS
VL: DIQMTQSPSSLSASVGDRVTITCHASQGISSNIGWLQQKPGKAFKGLIYQGSNLEDGVPSRFSGSGSGTDYTLTISSLQPEDFATYYCVQFAQFPPTFGQGTKLEIKR
notes: Humanized mab5; human kappa / IgG4
Regarding B3, the EC50 in assay [4] amounted to 0.131 nM. This lies in the sub-nanomolar range.

B4: 人源化ab6抗体 (humanized anti-TIM-3 antibody ab6) (antibody, human IgG4 S228P, kappa, V domains shown)
VH: B3 VH
VL: B3 VL with T69A
notes: as for B3
For the molecule B4, the “killing of tumour cells by PBMC/NK cells relative to the reference antibody (fold)” value in assay [2] was ≥ 2 倍 (fold). In addition, the midpoint of the response in assay [4], the EC50, lay at 0.159 nM.

B5: 人源化ab7抗体 (humanized anti-TIM-3 antibody ab7) (antibody, human IgG4 S228P, kappa, V domains shown)
VH: B3 VH
VL: B3 VL with Y71F
notes: as for B3
Molecule B5 had an EC50 in assay [4] of 0.154 nM.

B6: 对照抗体 ABTIM3 (reference anti-TIM-3 antibody, sequence from WO2015117002A1) (antibody, V domains shown)
VH: QVQLQQPGAELVKPGASVKMSCKASGYTFTSYNMHWIKQTPGQGLEWIGDIYPGNGDTSYNQKFKGKATLTADKSSSTVYMQLSSLTSEDSAVYYCARVGGAFPMDYWGQGTSVTVSS
VL: DIVLTQSPASLAVSLGQRATISCRASESVEYYGTSLMQWYQQKPGQPPKLLIYAASNVESGVPARFSGSGSGTDFSLNIHPVEEDDIAIYFCQQSRKDPSTFGGGTKLEIK
For B6, in assay [4], the concentration for a half-maximal effect (EC50) is 0.245 nM and 0.13 nM.

These data come from patent publication CN108948193A (SHANGHAI JIANXIN BIOPHARMACEUTICALS LLC, dated 2018).
